{
  "source": "paper PMC8635971",
  "about": "“A nanocompartment system contributes to defense against oxidative stress in Mycobacterium tuberculosis” (eLife, 2021)",
  "proteins": {"B1": {"name": "unencapsulated (naked) DyP purified from E. coli (enzyme)", "chain": "MAVPAVSPQPILAPLTPAAIFLVATIGADGEATVHDALSKISGLVRAIGFRDPTKHLSVVVSIGSDAWDRLFAGPRPTELHPFVELTGPRHTAPATPGDLLFHIRAETMDVCFELAGRILKSMGDAVTVVDEVHGFRFFDNRDLLGFVDGTENPSGPIAIKATTIGDEDRNFAGSCYVHVQKYVHDMASWESLSVTEQERVIGRTKLDDIELDDNAKPANSHVALNVITDDDGTERKIVRHNMPFGEVGKGEYGTYFIGYSRTPTVTEQMLRNMFLGDPAGNTDRVLDFSTAVTGGLFFSPTIDFLDHPPPLPQAATPTLAAGSLSIGSLKGSPR", "notes": "dye-decolorizing peroxidase DyP, Rv0799c, Mycobacterium tuberculosis; Tetramer seen after addition of hemin; The methods say the SUMO tag was removed; the results call the protein SUMO-tagged; A tetramer of 144 kDa would fit an untagged monomer of about 36 kDa (surmise); also called free DyP; SUMO-tagged unencapsulated DyP"}},
  "target": "the molecule itself",
  "test": "SDS-PAGE of unboiled (native state) samples",
  "data": [
    {"protein": "B1", "values": [
      {"measurement": "stoichiometry N", "result": 4}
    ]}
  ]
}
